Two substances from paper PMC3660568 can be followed below.

Assay [1] concerns the target anti-HER2 IgG1 light chain (biosimilar Herceptin). Kind of assay: non-reducing SDS-PAGE with western blot; crude supernatant of stably transfected CHO DG44 pools at the end of culture, non-reducing conditions; detected with anti-human IgG Fc and anti-human kappa LC antibodies; species assigned by molecular weight. For orientation: In western blotting, separated proteins are transferred to a membrane and probed.

In assay [2] the target is anti-HER2 IgG1 heavy chain (biosimilar Herceptin). The description is as above.

The term stoichiometry N denotes the number of molecules, sites or subunits per partner or assembly. Take “anti-HER2 IgG1 light chain (biosimilar Herceptin)”: in assay [1], the stoichiometry N worked out at 2. “anti-HER2 IgG1 heavy chain (biosimilar Herceptin)”: the stoichiometry N in assay [2] was determined as 2.
